“Also recorded” adds a separate entry of the source.
Experiments:
[1] = target: T1, M4 muscarinic receptor (Homo sapiens, UniProt P08173, L74A); assay: Thermostability of M4 muscarinic receptor bound to antagonist NMS; format: physicochemical; details: antagonist NMS bound, data not shown
T1 construct: made in house; host or cells: HEK293T cells, transient
T1 sequence (P08173 1-479 L74A): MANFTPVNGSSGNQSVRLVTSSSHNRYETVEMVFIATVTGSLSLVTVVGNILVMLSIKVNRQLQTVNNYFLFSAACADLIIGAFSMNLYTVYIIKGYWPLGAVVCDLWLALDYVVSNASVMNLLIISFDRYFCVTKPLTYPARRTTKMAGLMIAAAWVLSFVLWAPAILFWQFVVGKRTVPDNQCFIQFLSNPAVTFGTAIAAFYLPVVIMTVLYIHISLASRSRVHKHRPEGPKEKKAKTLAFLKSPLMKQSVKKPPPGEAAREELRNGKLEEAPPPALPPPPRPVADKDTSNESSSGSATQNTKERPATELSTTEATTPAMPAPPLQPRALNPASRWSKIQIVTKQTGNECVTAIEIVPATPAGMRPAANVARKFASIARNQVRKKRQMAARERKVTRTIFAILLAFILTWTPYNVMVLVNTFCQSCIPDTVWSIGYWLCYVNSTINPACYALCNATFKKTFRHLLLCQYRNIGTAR
Description: In order to stabilise the M4 muscarinic receptors in antagonist conformation, a systematic alanine-scan was performed to identify mutations that stabilise receptors bound to the muscarinic antagonist, NMS. […] However, L71A (three residues N-terminal of the L2.46) was identified as a stabilising mutation. This mutation increases the Tm of this receptor by about 2° C. (FIG. 8a).
(§1) A2AR-(2-316) expression was carried out by using the pRG/III-hs-MBP E. coli expression vector and DH5α cells. Cells were grown at 37° C. in 2 L flasks containing 500 mL of 2×TY medium supplemented with Ampicillin (100 μg/mL) and glucose (0.2% w/v). At OD600≈0.7, IPTG and theophylline were added at final concentrations respectively of 0.5 mM and 100 μM, and the temperature was reduced to 20° C. After 22 to 24 hours, cells were harvested in aliquots of 14 mL, centrifuged for 30 min and stored at −20° C. Both 5HT2C and M4 receptors were transiently expressed in HEK293T cells using GeneJuice transfection reagent used according to the manufacturers guidelines.
(§2) Transiently transfected mammalian cells expressing M4 were harvested about 40 hours post transfection and the receptors were solubilised in 50 mM Tris pH 7.5/250 mM NaCl/1% DDM/EDTA free protease inhibitor mix for 1 hour rotating at 4° C. The solubilised lysate was then cleared by centrifugation at 13000 rpm for 15 minutes at 4° C. The solubilised receptors were then purified on Ni-NTA beads and eluted with 100 mM histidine. The eluted receptor was used in radioligand binding assay. Thermostability of M4 was measured using 25 μL of purified receptor mixed with 95 μL of 12 nM [^3H]-NMS (final concentration of 10 nM). The sample was incubated for 60 min at 4° C., then 30 min at the specified temperature and then 30 min at 4° C. Receptor bound and free radioligand were separated using a 96-well plate gel filtration assay.

[2] = tested on: A2A receptor; assay: Thermostability of A2A receptor in NECA agonist-bound state, solubilised in DDM; format: physicochemical, human
Description: (§3) In order to stabilise an agonist-bound conformation, a systematic Alanine-scan was performed in order to identify mutations that may stabilise the A2A receptor bound to its full agonist NECA. In this A2A agonist-bound study, L2.46 (L48A) is the most stabilising single mutant. When NECA is bound to the solubilised receptor, removing the L48 side chain (in A2A-L48A) dramatically increases the thermostability of the ligand-receptor complex resulting in an increase of 14° C. over the wild type receptor in the detergent DDM (FIG. 5a). […] We evaluated the signalling property of the A2A receptor by over-expressing the receptor in CHO cells. A2A agonist stimulation triggers the signal transduction through the Gs-trimeric complex and increases the intracellular cAMP level. The increase in intracellular cAMP can be detected by and quantified by using an anti-cAMP Mab antibody competition assay. […] However the signalling efficacy is reduced to 30% (FIG. 6).
as §1
An aliquot of E. coli cells expressing wild type or mutant A2AR-(2-316) (14 mL) was thawed on ice and cells were resuspended in 500 μL of buffer A (50 mM Tris HCl mM/pH 7.4; 0.4 M NaCl, 250 μg/mL lysozyme (Sigma), 1 mg/mL DNAse I (Sigma), supplemented with complete EDTA-free Protease inhibitor cocktail (Roche)) and incubated 1 hour at 4° C. Samples were then sonicated 1 min at 4° C. using a cup-horn sonicator. […]

[3] = tested on: A2A receptor; assay: Thermostability of A2A receptor in ZM241385 antagonist-bound state, solubilised in DDM; format: physicochemical, human; details: ZM antagonist
Description: as §3
A2AR-(2-316) expression was carried out by using the pRG/III-hs-MBP E. coli expression vector and DH5α cells. Cells were grown at 37° C. in 2 L flasks containing 500 mL of 2×TY medium supplemented with Ampicillin (100 μg/mL) and glucose (0.2% w/v). At OD600≈0.7, IPTG and theophylline were added at final concentrations respectively of 0.5 mM and 100 μM, and the temperature was reduced to 20° C. […]

[4] = target: T2, A2A receptor (Homo sapiens, UniProt P29274, L48A); assay: cAMP functional assay (HTRF), NECA stimulation of CHO cells over-expressing A2A receptor; format: cell-based; details: cAMP, relative to A2A-WT
T2 construct: transfected with 100 ng of pcDNA-3-A2A(2-316) pre-incubated with 0.3 μL of GeneJuice; expressed in transfected cells; host or cells: CHO cells, transient
Description: as §3
(§4) This assay takes advantage of Homogeneous Time-Resolved Fluorescence (HTRF) using cAMP labeled with the dye d2 in presence of an anti-cAMP Mab labeled with Cryptate. The method is based on a competitive immunoassay between cAMP produced by cells and the cAMP labeled with the dye d2. CHO cells were grown using Glutamax Ham's F12, 10% FBS in 96-well plates, clear bottom and Black wall (Costar). Cells were seeded at a density of 12500 cells per well, grown overnight, washed with PBS and then transfected with 100 ng of pcDNA-3-A2A(2-316) pre-incubated with 0.3 μL of GeneJuice (Novagen) per well. After 48 hours of receptor expression, the medium was removed, the cells were washed in PBS then stimulated by using different NECA concentrations, in the presence of Rolipram (50 μM) and Adenosine deaminase in a total volume of 50 μL for 30 minutes. Dilution was realised in Hamf's F12/cAMP-d2 conjugate according to the manufacturer protocol, without serum. […] The plate was incubated at room temperature for 1 hour and then read using the Pherastar 96-well time-resolved fluorescence plate reader (Ex 340 nm; Em 665/620 nm).

[5] = tested on: A2A receptor; assay: as above; format: cell-based, human; details: intracellular cAMP, CHO cells
Description: as §3, §4

[6] = tested on: OX2 receptor; assay: Thermostability of OX2 receptor bound to antagonist EMPA; format: physicochemical, human; details: bound to antagonist EMPA
Description: as §2
A tandem alanine and leucine scanning mutagenesis strategy was used to identify mutations that enhanced the thermostability of OX2 bound to the small-molecule antagonist EMPA.
Thermostability assays were preformed on partially purified receptors as described for M4, with the following amendments. Cell lysates were solubilised in 50 mM Tris pH7.4, 150 mM NaCl, 1% DDM supplemented with 1× complete EDTA free protease inhibitor cocktail (Roche). Radioligand binding reactions were set up using 1/10 volume eluted receptor mixed with 20 nM ^3H-EMPA (final concentration) per temperature point.

B1: M4 L2.46: M4 muscarinic receptor with L2.46 residue mutated to alanine (protein, UniProt P08173 1-479, looked up, variant L74A)
Muscarinic acetylcholine …: MANFTPVNGSSGNQSVRLVTSSSHNRYETVEMVFIATVTGSLSLVTVVGNILVMLSIKVNRQLQTVNNYFLFSAACADLIIGAFSMNLYTVYIIKGYWPLGAVVCDLWLALDYVVSNASVMNLLIISFDRYFCVTKPLTYPARRTTKMAGLMIAAAWVLSFVLWAPAILFWQFVVGKRTVPDNQCFIQFLSNPAVTFGTAIAAFYLPVVIMTVLYIHISLASRSRVHKHRPEGPKEKKAKTLAFLKSPLMKQSVKKPPPGEAAREELRNGKLEEAPPPALPPPPRPVADKDTSNESSSGSATQNTKERPATELSTTEATTPAMPAPPLQPRALNPASRWSKIQIVTKQTGNECVTAIEIVPATPAGMRPAANVARKFASIARNQVRKKRQMAARERKVTRTIFAILLAFILTWTPYNVMVLVNTFCQSCIPDTVWSIGYWLCYVNSTINPACYALCNATFKKTFRHLLLCQYRNIGTAR
effect on thermal stability [1]: does not change the thermal stability of this receptor significantly

B2: A2A-L48A: human adenosine A2A receptor mutant, Leu 48 (L2.46) replaced by alanine (protein, UniProt P29274 1-412, looked up, variant L48A)
Adenosine receptor A2a: MPIMGSSVYITVELAIAVLAILGNVLVCWAVWLNSNLQNVTNYFVVSAAAADIAVGVLAIPFAITISTGFCAACHGCLFIACFVLVLTQSSIFSLLAIAIDRYIAIRIPLRYNGLVTGTRAKGIIAICWVLSFAIGLTPMLGWNNCGQPKEGKNHSQGCGEGQVACLFEDVVPMNYMVYFNFFACVLVPLLLMLGVYLRIFLAARRQLKQMESQPLPGERARSTLQKEVHAAKSLAIIVGLFALCWLPLHIINCFTFFCPDCSHAPLWLMYLAIVLSHTNSVVNPFIYAYRIREFRQTFRKIIRSHVLRQQEPFKAAGTSARVLAAHGSDGEQVSLRLNGHPPGVWANGSAPHPERRPNGYALGLVSGGSAQESQGNTGLPDVELLSHELKGVCPEPPGLDDPLAQDGAGVS
Tm ([2]; NECA agonist-bound state (400 nM), solubilised in DDM): 42.5±1.0 °C
increase in thermostability over the wild type receptor ([2]; NECA bound, detergent DDM): 14 °C
antagonist binding [3]: abolishes the binding of the antagonist; also recorded: no binding detected
signalling efficacy [4]: 30%
pEC50 [5]: 8.10±0.39

B3: OX2WT: wild type human orexin 2 receptor (protein, UniProt O43614 1-444, looked up)
Orexin receptor type 2: MSGTKLEDSPPCRNWSSASELNETQEPFLNPTDYDDEEFLRYLWREYLHPKEYEWVLIAGYIIVFVVALIGNVLVCVAVWKNHHMRTVTNYFIVNLSLADVLVTITCLPATLVVDITETWFFGQSLCKVIPYLQTVSVSVSVLTLSCIALDRWYAICHPLMFKSTAKRARNSIVIIWIVSCIIMIPQAIVMECSTVFPGLANKTTLFTVCDERWGGEIYPKMYHICFFLVTYMAPLCLMVLAYLQIFRKLWCRQIPGTSSVVQRKWKPLQPVSQPRGPGQPTKSRMSAVAAEIKQIRARRKTARMLMIVLLVFAICYLPISILNVLKRVFGMFAHTEDRETVYAWFTFSHWLVYANSAANPIIYNFLSGKFREEFKAAFSCCCLGVHHRQEDRLTRGRTSTESRKSLTTQISNFDNISKLSEQVVLTSISTLPAANGAGPLQNW
Tm [6]: 28.47 °C
